The values below come from publication PMC8528726, “Kinetics of H2O2-driven catalysis by a lytic polysaccharide monooxygenase from the fungus Trichoderma reesei” (The Journal of Biological Chemistry, 2021).

Substrate in the data set: O=C1O[C@H]([C@@H](O)CO)C(O)=C1O
Put plainly: purified protein. Type of data set: biochemical, Trichoderma reesei. Particulars: 50 mM sodium acetate pH 5.0, 25 °C.

Where [1] appears, read: ascorbate peroxidase reaction, co-substrate H2O2, true value extrapolated over [H2O2], ping-pong, insufficient AscA saturation, treat with caution.

B1: TrAA9A (Trichoderma reesei QM6a) (protein)
chain: HGHINDIVINGVWYQAYDPTTFPYESNPPIVVGWTAADLDNGFVSPDAYQNPDIICHKNATNAKGHASVKAGDTILFQWVPVPWPHPGPIVDYLANCNGDCETVDKTTLEFFKIDGVGLLSGGDPGTWASDVLISNNNTWVVKIPDNLAPGNYVLRHEIIALHSAGQANGAQNYPQCFNIAVSGSGSLQPSGVLGTDLYHATDPGVLINIYTSPLNYIIPGPTVVSGLPTSVAQGSSAATATASATVPGGGSGPTSRTTTTARTTQASSRPSSTPPATTSAPAGGPTQTLYGQCGGSGYSGPTRCAPPATCSTLNPYYAQCLN
notes: saturated with copper
Consider B1, for which, under setting [1], the Km (commonly the substrate concentration at which the rate is half of its maximum) was 140 µM; the kcat (in general, the number of substrate molecules converted per active site and unit of time at saturation) was 2.1 s⁻¹. In addition, the K0.5 (cellulose peroxygenase reaction, priming reductant, H2O2 and BMCC present, varied: cofactor) is 0.1 mM.
